Paper PMC3539332

Target: Arfrp1-His (UniProt Q13795)
Experiment: liposome flotation; liposomes incubated with Arfrp1-His (1.5 μg) and 100 μM GDP or GTPγS, with or without 1 μg MBP-Vangl2 cytosolic domain, in HKM buffer at room temperature for 45 min, then 2 μg purified AP-1 for 1 hr; sucrose flotation; γ1-adaptin in the top fraction by immunoblot, normalised to lipid

Sequence of UniProt Q13795 (Q13795 whole entry, the tested form may be a part): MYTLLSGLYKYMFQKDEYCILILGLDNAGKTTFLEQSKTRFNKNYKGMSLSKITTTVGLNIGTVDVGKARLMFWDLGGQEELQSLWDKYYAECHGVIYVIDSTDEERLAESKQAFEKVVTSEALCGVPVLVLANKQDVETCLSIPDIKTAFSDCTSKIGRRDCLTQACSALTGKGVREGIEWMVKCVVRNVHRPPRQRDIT

fold change of membrane recruitment of AP-1 with both Vangl2 cytosolic domain and Arfrp1-GTPγS: 3 fold
Substance: purified AP-1 complex (from UniProt Q2KJ81 1-423)
